In the Immune Epitope Database (IEDB):

The sequences below were run against HLA-A*68:02 (assay: IEDB peptide-MHC binding, purified MHC/competitive/radioactivity; ≥ and ≤ were set here for values at or beyond the usual limits of such assays). Conditions: source organism: SARS-CoV1.
Work on ILASFSAST yielded an IC50 of 1220 nM.

Same assay, conditions: source organism: Vaccinia virus WR
FVDTMSIYI was tested, and the IC50 was 465 nM.
In the case of FVDTMSIYIA, the IC50 is reported as 229 nM.
Sequence FVKENERVNV has an IC50 of 1290 nM.
In the case of FVLALYSPPL, the IC50 is reported as 263 nM.
With FVMCLEAKT the IC50 was 1510 nM.
Work on FVNFVKDMI yielded an IC50 of 0.62 nM.
FVSTMPVET was tested, and the IC50 was 325 nM.
In the case of FVTDYVHEGV, the IC50 is reported as 1.6 nM.
FVYVSVMNFI showed an IC50 of 57 nM.
GIFVDTMSI showed an IC50 of 3980 nM.
Work on GIYNCCESNI yielded an IC50 of 3800 nM.
GLSSGFYFEI gave an IC50 of 1720 nM.
Work on GLYIPGTSV yielded an IC50 of 904 nM.
In the case of GMSIVCIVAA, the IC50 is reported as 1860 nM.
With GTIILNKIV the IC50 was 926 nM.
GTSVIRSNI gave an IC50 of 96 nM.
Work on GVCYYLLMHL yielded an IC50 of 80 nM.
For GVMYAFTTPL, the IC50 was 2540 nM.
Sequence HIKTIAVSV has an IC50 of 381 nM.
In the case of HILHAYCGI, the IC50 is reported as 143 nM.
Sequence HLMSDNPKA has an IC50 of 1100 nM.
HVLLPFYETL showed an IC50 of 2270 nM.
Work on IAGGVCYYL yielded an IC50 of 394 nM.
With IALALEQYGI the IC50 was 2900 nM.
Sequence IASILSLETV has an IC50 of 200 nM.
IASSMKGENV was tested, and the IC50 was 867 nM.
With IAVITETIPI the IC50 was 154 nM.
IAVSVYGAI was tested, and the IC50 was 7.8 nM.
IIAVFDSKL gave an IC50 of 2320 nM.
Work on IICEDAMYYA yielded an IC50 of 746 nM.
With IIMAINVFT the IC50 was 84 nM.
Sequence IINSVSIILA has an IC50 of 154 nM.
For IIPFIAYFVL, the IC50 was 76 nM.
With IISLFYTFAI the IC50 was 144 nM.
IISSKQYPA was tested, and the IC50 was 3580 nM.
In the case of IISYIILFI, the IC50 is reported as 5.7 nM.
Work on IISYIILFIL yielded an IC50 of 2090 nM.
With IITILQDIV the IC50 was 1070 nM.
IIYSKAGNIL showed an IC50 of 3920 nM.
With ILATLNTLI the IC50 was 2310 nM.
With ILATLNTLIT the IC50 was 1860 nM.
Sequence ILEYLYIMRV has an IC50 of 1350 nM.
ILFILFFAYV was tested, and the IC50 was 320 nM.
Work on ILISLINSLV yielded an IC50 of 141 nM.
ILLILSCIFA gave an IC50 of 2750 nM.
ILPDKIDGL gave an IC50 of 4000 nM.
ILQMREIIT was tested, and the IC50 was 1160 nM.
For ILRNYLRLYI, the IC50 was 2650 nM.
Sequence ILSCIFAFI has an IC50 of 1.3 nM.
For ILYYGANGST, the IC50 was 3830 nM.
IMAFILGII was tested, and the IC50 was 2520 nM.
IMDKEQLLKI gave an IC50 of 3240 nM.

The sequences below were run against HLA-A*02:02 in the same assay as above. Conditions: source organism: Hepacivirus hominis.
HLFTSMFSL gave an IC50 of 5.2 nM.
ILMTHFFSI showed an IC50 of 6.7 nM.
For ILMTHFFSIL, the IC50 was 35 nM.

Same assay, conditions: source organism: Influenza A virus
FVFTLTVPS gave an IC50 of 394 nM.
GILGFVFTLT gave an IC50 of 960 nM.

Same assay, conditions: source organism: Mammarenavirus brazilense
HSLPRCWLV showed an IC50 of 655 nM.

Same assay, conditions: source organism: SARS-CoV1
Work on FVDGVPFVV yielded an IC50 of 9.6 nM.
With FVFNGTSWFI the IC50 was 1 nM.
Work on FVVFLLVTL yielded an IC50 of 217 nM.
For GALDVSASV, the IC50 was 0.72 nM.
With GLIAIVMVTI the IC50 was 7.6 nM.
GLMWLSYFV showed an IC50 of 0.2 nM.
Work on GLSDRVVFV yielded an IC50 of 1 nM.
Work on GTSAAAYFV yielded an IC50 of 35 nM.
HAFLCLFLL showed an IC50 of 21 nM.
IAACAMLLV gave an IC50 of 320 nM.
Sequence IIFWFSLEI has an IC50 of 1.8 nM.
In the case of ILASFSAST, the IC50 is reported as 1.6 nM.

Same assay, conditions: source organism: Vaccinia virus WR
For FVDTMSIYI, the IC50 was 21 nM.
For FVDTMSIYIA, the IC50 was 154 nM.
In the case of FVKENERVNV, the IC50 is reported as 186 nM.
FVLALYSPPL showed an IC50 of 2.2 nM.
For FVMCLEAKT, the IC50 was 609 nM.
Sequence FVNFVKDMI has an IC50 of 55 nM.
With FVSTMPVET the IC50 was 1220 nM.
FVTDYVHEGV gave an IC50 of 24 nM.
With FVYVSVMNFI the IC50 was 76 nM.
GIFVDTMSI showed an IC50 of 2880 nM.
Sequence GIYNCCESNI has an IC50 of 68 nM.
In the case of GLSSGFYFEI, the IC50 is reported as 48 nM.
Work on GLYIPGTSV yielded an IC50 of 111 nM.
In the case of GMSIVCIVAA, the IC50 is reported as 161 nM.
Sequence GTIILNKIV has an IC50 of 1190 nM.
GTSVIRSNI was tested, and the IC50 was 386 nM.
GVCYYLLMHL gave an IC50 of 96 nM.
